Results on 167 variants are retold here after the RNAGym collection of RNA variant scans (doi:10.7554/elife.80360).

B1: HDV Ribozyme (parent)
chain: GGCCGGCAUGGUCCCAGCCUCCUCGCUGGCGCCGGCUGGGCAACAUUCCGAGGGGACCGUCCCCUCGGUAAUGGCGAAUGGGACCCA
B2: Hairpin Ribozyme (parent)
chain: GUCCUCUUUCACGUGCGCGUGAAAGAGAGAAGUGAACCAGAGAAACACACGUUGUGGUAUAUUACCUGGUA

Variants of B1 are the subject of the first data set. The data set is described as follows: self-cleavage, relative activity (ratio to wild type); higher = more cleavage; co-transcriptional.
In the case of A78C, the self-cleavage stood at 0.164.

Another data set covers variants of B2. Described as above.
For G1C G42A, the self-cleavage was found to be 0.148. In the case of G1C G42U, the self-cleavage was 0.145. In the case of G1C G21C, the self-cleavage worked out at 0.378. Same read-out and setting: the figure for G1A A44U is 0.17. As to G1C U9C, the self-cleavage came to 0.198. Take G1U A28C: the self-cleavage amounted to 0.0863. With G1A U63A, the self-cleavage stood at 0.146. The same measure, in the same setting: the figure for G1A U63G is 0.284. Same read-out and setting: the figure for G1C U58C is 0.16. For G1A A39U, the self-cleavage amounted to 0.154. For G1C A22C, the self-cleavage was found to be 0.274.

Turning to G1C A28C, the self-cleavage turned out to be 0.262. Regarding G1A G69C, the self-cleavage was determined as 0.137.

Regarding G1A G69A, the self-cleavage came to 0.164. Consider G1A U2A, for which the self-cleavage was found to be 0.574. With G1A A43C, the self-cleavage was 0.144. For the variant G1A C50U, the self-cleavage was found to be 0.135. Still for that read-out and setting: the figure for G1A C12U is 0.266; for G1U A23C it is 0.0726; for G1U A23G it is 0.183. For the variant G1U A43C, the self-cleavage stood at 0.169.

For G1U A43U, the self-cleavage was 0.142. With G1U A43G, the self-cleavage is 0.0972. Regarding G1A A36C, the self-cleavage amounted to 0.215. For G1C U5G, the self-cleavage amounted to 0.237.

Regarding G1C U5A, the self-cleavage stood at 0.133. The same measure, in the same setting: with G1A C46U the figure was 0.225; with G1A A41C, 0.134; with G1C G40U, 0.202. On to G1C G40A, for which the self-cleavage came out at 0.0839. Regarding G1C A71G, the self-cleavage stood at 0.313.

For G1C C18A, the self-cleavage was 0.177. On to G1C C18U, for which the self-cleavage amounted to 0.139.

For G1C C18G, the self-cleavage was found to be 0.307. Turning to G1C U62C, the self-cleavage turned out to be 0.0543.

On to G1C U55G, for which the self-cleavage was found to be 0.132. Still for that read-out and setting: with G1A C66A the figure was 0.164; with G1A C66U, 0.127; with G1C U63A, 0.194.

G1C U63C: the self-cleavage stood at 0.285. On to G1C A49G, for which the self-cleavage came to 0.315. Still for that read-out and setting: with G1C A49C the figure was 0.159.

G1C A49U: the self-cleavage was 0.252.

As to G1A A11G, the self-cleavage stood at 0.0942. Consider G1A A11C, for which the self-cleavage stood at 0.139. Still for that read-out and setting: with G1A A35U the figure was 0.142; with G1C U20A, 0.175; with G1A U70G, 0.0827. For the variant G1C A64C, the self-cleavage was found to be 0.186. Consider G1A C10G, for which the self-cleavage amounted to 0.207.

G1C U8G: the self-cleavage amounted to 0.216. For the variant G1C A31C, the self-cleavage stood at 0.284. Take G1A A31U: the self-cleavage worked out at 0.284. In the case of G1A A31C, the self-cleavage was 0.132. For G1C A41U, the self-cleavage worked out at 0.229.

As to G1C A41C, the self-cleavage stood at 0.411.

As to G1U A26C, the self-cleavage is 0.103. On to G1U A26U, for which the self-cleavage is 0.068. For G1C G56U, the self-cleavage turned out to be 0.293.

As for G1A U5G, the self-cleavage stood at 0.14.

Regarding G1U A30U, the self-cleavage worked out at 0.162. On to G1U A30C, for which the self-cleavage was 0.178. For the variant G1C A47C, the self-cleavage was found to be 0.0859. As to G1C A24U, the self-cleavage was determined as 0.19.

For the variant G1C C65G, the self-cleavage was found to be 0.148.

On to G1C U60A, for which the self-cleavage was found to be 0.123. Same read-out and setting: with G1C U60G the figure was 0.0347.

Turning to G1C C38A, the self-cleavage was determined as 0.281. Take G1C C38G: the self-cleavage was determined as 0.112. G1A C16A: the self-cleavage came to 0.172.

Regarding G1A A24G, the self-cleavage is 0.159. Turning to G1A A24U, the self-cleavage is 0.191. Same read-out and setting: with G1A A24C the figure was 0.18. Take G1C U52A: the self-cleavage is 0.0569. On to G1A C37A, for which the self-cleavage came out at 0.0752. For G1A U8C, the self-cleavage worked out at 0.265. Turning to G1A U8A, the self-cleavage was 0.232. Turning to G1A U52C, the self-cleavage is 0.181. For the variant G1C G27C, the self-cleavage turned out to be 0.201. The same measure, in the same setting: the figure for G1A G27A is 0.144; for G1A G27U it is 0.153; for G1A A64C it is 0.0979. As to G1U A11C, the self-cleavage is 0.0545. Still for that read-out and setting: the figure for G1U A39C is 0.118; for G1U A39U it is 0.0669; for G1A U62C it is 0.133. On the same count and under the same terms, the figure for G1A U62G is 0.0492. G1C G19U: the self-cleavage was found to be 0.194. The same measure, in the same setting: with G1C G19C the figure was 0.0663. For the variant G1C G29U, the self-cleavage turned out to be 0.129. As to G1A A22G, the self-cleavage worked out at 0.223. On the same count and under the same terms, the figure for G1U A44U is 0.128; for G1A A45U it is 0.106. On the same count and under the same terms, with G1C U53C the figure was 0.239; with G1A U7C, 0.31. For G1A U7A, the self-cleavage came to 0.127.

In the case of G1C A39U, the self-cleavage is 0.187.

Regarding G1C G51A, the self-cleavage was 0.343. As for G1U A24C, the self-cleavage turned out to be 0.162. Turning to G1U A24G, the self-cleavage was 0.0236. In the case of G1A G29A, the self-cleavage stood at 0.157. In the case of G1A G29C, the self-cleavage is 0.196. Turning to G1A G29U, the self-cleavage was determined as 0.157. Turning to G1C U33C, the self-cleavage was found to be 0.134. For G1C U33G, the self-cleavage was 0.228. Still for that read-out and setting: the figure for G1C G54U is 0.274. Consider G1C G54C, for which the self-cleavage was found to be 0.072. On the same count and under the same terms, with G1C C4U the figure was 0.228. The same measure, in the same setting: with G1C C4A the figure was 0.126. On the same count and under the same terms, with G1U A36C the figure was 0.143. On to G1C A45U, for which the self-cleavage stood at 0.217. For G1A U53G, the self-cleavage is 0.0863. Turning to G1A U53A, the self-cleavage is 0.12. For the variant G1A U53C, the self-cleavage was determined as 0.0768. As for G1U A31C, the self-cleavage worked out at 0.0695.

As to G1U A31G, the self-cleavage is 0.0331.

Take G1A U14C: the self-cleavage came to 0.166. As to G1A U14G, the self-cleavage was 0.195.

G1A C38G: the self-cleavage was 0.157. G1A A26C: the self-cleavage stood at 0.147. Turning to G1C G32U, the self-cleavage was 0.171. With G1A G15U, the self-cleavage worked out at 0.0969.

On to G1A G15A, for which the self-cleavage was 0.208. Same read-out and setting: the figure for G1C U7A is 0.229; for G1C U7C it is 0.488.

G1A G21C: the self-cleavage came to 0.119. For G1C A30U, the self-cleavage amounted to 0.0862. On to G1C C66G, for which the self-cleavage worked out at 0.0728.

Consider G1A G17C, for which the self-cleavage was determined as 0.12.

Regarding G1A U58C, the self-cleavage turned out to be 0.216.

Take G1A U67A: the self-cleavage amounted to 0.193. With G1A U67G, the self-cleavage came to 0.116. The same measure, in the same setting: with G1A C3U the figure was 0.136; with G1A C3A, 0.115. Turning to G1A A28U, the self-cleavage was 0.0496. With G1A A28G, the self-cleavage is 0.196. With G1A G13A, the self-cleavage is 0.161. The same measure, in the same setting: the figure for G1U A45C is 0.126.

As to G1U A45G, the self-cleavage was 0.0992. The same measure, in the same setting: with G1A A61U the figure was 0.0641. On the same count and under the same terms, with G1C A43U the figure was 0.171.

With G1C A43C, the self-cleavage was found to be 0.0543. Regarding G1A U55G, the self-cleavage was 0.0224. Same read-out and setting: the figure for G1A G42A is 0.122. Consider G1C C16A, for which the self-cleavage was 0.0908. As for G1C G15U, the self-cleavage is 0.24. The same measure, in the same setting: the figure for G1C G15C is 0.117. Consider G1A A23C, for which the self-cleavage stood at 0.221.

With G1A A23G, the self-cleavage was found to be 0.123. On to G1C A35C, for which the self-cleavage came out at 0.0578.

Turning to G1A G25A, the self-cleavage was 0.245. On to G1A G25U, for which the self-cleavage was determined as 0.102. Take G1A A30U: the self-cleavage was 0.159. Consider G1C A44U, for which the self-cleavage came out at 0.295. With G1C C3G, the self-cleavage was determined as 0.246.

With G1A U60C, the self-cleavage stood at 0.248. G1A U60G: the self-cleavage worked out at 0.194. For G1A A71C, the self-cleavage came to 0.435. G1A A71U: the self-cleavage turned out to be 0.196. G1A G19A: the self-cleavage worked out at 0.203. G1A G19U: the self-cleavage was determined as 0.13. As for G1A G19C, the self-cleavage is 0.203. As for G1C C48G, the self-cleavage was determined as 0.086.

Regarding G1C C48U, the self-cleavage was determined as 0.189.

G1C U67G: the self-cleavage worked out at 0.0946. On the same count and under the same terms, with G1A G51U the figure was 0.274.
